Non-standard residues stand in square brackets, D forms with d. No end group written: not given here. Phe(4-NO2) = N[C@@H](Cc1ccc([N+](=O)[O-])cc1)C(=O)O; pS = N[C@@H](COP(=O)(O)O)C(=O)O; βAla = NCCC(=O)O
B3: 14-3-3γ (natural protein)
chain: MVDREQLVQKARLAEQAERYDDMAAAMKNVTELNEPLSNEERNLLSVAYKNVVGARRSSWRVISSIEQKTSADGNEKKIEMVRAYREKIEKELEAVCQDVLSLLDNYLIKNCSETQYESKVFYLKMKGDYYRYLAEVATGEKRATVVESSEKAYSEAHEISKEHMQPTHPIRLGLALNYSVFYYEIQNAPEQACHLAKTAFDDAIAELDTLNEDSYKDSTLIMQLLRDNLTLWTSDQQDDDGGEGNN

Assays:
14-3-3γ [1] = molecular target: B3; assay: FP; competition with FITC-BiExoS
14-3-3γ [2] = molecular target: B3; assay: FP
FITC-labeled 14-3-3.1 = FITC-labeled 14-3-3.1 (FITC label (position not given); phosphoserine fixed in the middle, flanked by four varied positions on either side; non-canonical amino acids; C-terminal motif Nph-β-Ser-(β-Ala/β-Ser)-Nph; …); assay: FP

B1: 14-3-3.12, unlabeled (peptide)
chain: KVF[thiazolylalanine][pS][Phe(4-NO2)]S[βAla][Phe(4-NO2)]K-NH2
modifications: not fully specified (residue 7); also: position 7 is a β-residue, identity not given here
14-3-3γ [1]
  IC50: 198 nM

B2: FITC-labeled 14-3-3.12 (peptide)
chain: KVF[thiazolylalanine][pS][Phe(4-NO2)]S[βAla][Phe(4-NO2)]K-NH2
modifications: not fully specified (residue 7); also: FITC label, position not given here, position 7 is a β-residue, identity not given here
14-3-3γ [2]
  Kd: 19 nM

## B3
FITC-labeled 14-3-3.1
  Kd: 5.7 nM

— article PMC7311396 (2020)
